Sequences and labels used below:
B2: FtsZ (E. coli cell division protein, tubulin-like GTPase) (natural protein, UniProt P0A9A6 1-383, looked up)
chain: MFEPMELTNDAVIKVIGVGGGGGNAVEHMVRERIEGVEFFAVNTDAQALRKTAVGQTIQIGSGITKGLGAGANPEVGRNAADEDRDALRAALEGADMVFIAAGMGGGTGTGAAPVVAEVAKDLGILTVAVVTKPFNFEGKKRMAFAEQGITELSKHVDSLITIPNDKLLKVLGRGISLLDAFGAANDVLKGAVQGIAELITRPGLMNVDFADVRTVMSEMGYAMMGSGVASGEDRAEEAAEMAISSPLLEDIDLSGARGVLVNITAGFDLRLDEFETVGNTIRAFASDNATVVIGTSLDPDMNDELRVTVVATGIGMDKRPEITLVTNKQVQQPVMDRYQQHGMAPLTQEQKPVAKVVNDNAPQTAKEPDYLDIPAFLRKQAD
modifications: tracer fraction only (10-50 nM in 10 uM unlabeled FtsZ): Alexa Fluor 488 succinimidyl ester at the amino groups, 0.4-0.5 mol of dye per mole of protein
notes: FtsZ, E. coli; it is kept as the same molecule; Polymers were triggered with GTP; also called FtsZ-GTP; FtsZ polymers

For data set [1], the target named is B2. Put plainly: fluorescence polarisation; fluorescence anisotropy binding titration in solution: SlmA (1 uM) and SBS-Fl (10 nM) with increasing concentrations of FtsZ, right after 2 mM GTP; with or without 20 uM FZ95 or FZ100; 25 C; 50 mM Tris-HCl pH 7.5, 300 mM KCl, 5 mM MgCl2; 1:1 model, apparent parameters. The following applies: both partners purified.
Data set [2] concerns the molecule itself. Put plainly: fluorescence correlation spectroscopy; FtsZ 10 uM (10 nM FtsZ-Alexa 488 as tracer), with 2 mM GTP and regeneration system against no GTP; dilute solution buffer; self-association into polymers.

B1: SlmA (E. coli nucleoid occlusion protein), bound to its DNA site SBS (natural protein, UniProt P0C093 1-198, looked up)
chain: MAEKQTAKRNRREEILQSLALMLESSDGSQRITTAKLAASVGVSEAALYRHFPSKTRMFDSLIEFIEDSLITRINLILKDEKDTTARLRLIVLLLLGFGERNPGLTRILTGHALMFEQDRLQGRINQLFERIEAQLRQVLREKRMREGEGYTTDETLLASQILAFCEGMLSRFVRSEFKYRPTDDFDARWPLIAAQLQ
notes: SlmA, E. coli; the DNA is not a chain; also called SlmA-SBS; SlmA nucleoprotein complexes
In the case of B1, in data set [1], the binding result is given as “binds”.
With B2, the binding result in data set [2] is on record as “binds”.

The values above are taken from PMC12693692, “Benzodioxane-benzamides targeting bacterial cell division protein FtsZ potentially disrupt SlmA-mediated nucleoid occlusion and reversible biomolecular condensation” (International journal of biological macromolecules, 2025).
